Reference: article doi:10.1101/2020.01.12.903617, “The peptide sensor motif stabilizes the outward-facing conformation of TmrAB” (bioRxiv, 2020)

T1: TmrA C416S/L290C (chain of the double cysteine mutant of cysteine-less WT TmrAB) (Thermus thermophilus, UniProt Q72J05 1-600, C416S | L290C)
T1 construct: TmrA, Thermus thermophilus, the chain of TmrAB with the canonical Walker B motif; Cysteine-less template made by GenScript; co-expressed with the TmrB chain; also called C416S^TmrA/L290C^TmrA
T1 sequence: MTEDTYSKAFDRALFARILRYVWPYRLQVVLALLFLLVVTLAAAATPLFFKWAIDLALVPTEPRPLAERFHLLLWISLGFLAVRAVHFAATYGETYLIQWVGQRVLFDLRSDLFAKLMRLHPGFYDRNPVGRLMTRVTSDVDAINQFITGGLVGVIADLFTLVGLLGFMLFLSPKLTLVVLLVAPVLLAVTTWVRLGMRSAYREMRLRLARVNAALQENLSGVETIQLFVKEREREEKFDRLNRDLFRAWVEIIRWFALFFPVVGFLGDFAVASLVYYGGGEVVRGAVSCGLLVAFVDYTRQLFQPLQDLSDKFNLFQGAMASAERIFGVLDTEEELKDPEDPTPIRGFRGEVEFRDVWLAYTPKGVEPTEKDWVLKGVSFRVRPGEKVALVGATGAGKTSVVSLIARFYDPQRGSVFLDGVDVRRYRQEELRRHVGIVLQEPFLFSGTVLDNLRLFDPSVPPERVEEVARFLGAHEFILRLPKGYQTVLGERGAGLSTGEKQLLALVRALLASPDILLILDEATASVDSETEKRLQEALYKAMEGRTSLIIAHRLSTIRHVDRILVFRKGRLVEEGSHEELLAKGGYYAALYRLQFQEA

T2: TmrA G131A/C416S/L290C (chain of the double cysteine mutant of G131A^TmrA TmrAB) (Thermus thermophilus, UniProt Q72J05 1-600, G131A | C416S | L290C)
T2 construct: TmrA, Thermus thermophilus, the chain of TmrAB with the canonical Walker B motif; Cysteine-less template made by GenScript; co-expressed with TmrB V275C; also called PSM glycine mutant
T2 sequence: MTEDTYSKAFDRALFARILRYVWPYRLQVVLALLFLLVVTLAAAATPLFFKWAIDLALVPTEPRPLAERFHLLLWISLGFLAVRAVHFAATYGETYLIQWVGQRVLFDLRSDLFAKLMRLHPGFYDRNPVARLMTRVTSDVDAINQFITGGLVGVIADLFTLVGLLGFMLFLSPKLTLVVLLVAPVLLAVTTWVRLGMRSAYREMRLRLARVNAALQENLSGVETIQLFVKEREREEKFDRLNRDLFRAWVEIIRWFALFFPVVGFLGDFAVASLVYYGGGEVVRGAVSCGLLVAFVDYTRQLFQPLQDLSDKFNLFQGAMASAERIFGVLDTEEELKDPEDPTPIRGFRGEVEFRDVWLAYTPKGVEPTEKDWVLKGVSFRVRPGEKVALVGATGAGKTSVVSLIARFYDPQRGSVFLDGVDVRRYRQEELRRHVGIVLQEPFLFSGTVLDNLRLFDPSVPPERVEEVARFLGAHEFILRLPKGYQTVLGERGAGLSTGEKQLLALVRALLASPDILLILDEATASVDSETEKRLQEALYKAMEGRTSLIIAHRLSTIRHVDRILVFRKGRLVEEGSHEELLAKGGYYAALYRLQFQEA


Columns and labels:
[1] = target: T1, TmrA C416S/L290C (chain of the double …); test: cross-linking; disulfide cross-linking of engineered cysteines: 1 uM TmrAB double cysteine mutants in SEC buffer, 0.5 mM copper phenanthroline, 68°C, without or with 5 mM ATP, 10 mM MgCl2 and/or 8 mM sodium orthovanadate; SDS-PAGE, ~150 kDa band of the cross-linked dimer; conditions: both partners purified
[2] = target: T2, TmrA G131A/C416S/L290C (chain of the …); test: as above; conditions: both partners purified

binding result [1]	binding result [2]	Binder
binds	–	TmrB G116A/V275C (chain of the double cysteine mutant of G116A^TmrB TmrAB) (natural protein, Thermus thermophilus, TmrB, Thermus thermophilus, the chain of TmrAB with the non-canonical Walker B motif; Co-expressed with TmrA C416S/L290C; The cloning paragraph prints G116A^TmrA, all other places G116A^TmrB; also called PSM glycine mutant) MTGRSAAPLLRRLWPYVGRYRWRYLWAVLAGLVSIFFFVLTPYFLRLAVDAVQAGRGFGVYALAIVASAALSGLLSYAMRRLAVVASRQVEYDLRRDLLHHLLTLDRDFYHKHRVADLMNRLNTDLSAVREMVGPGILMGSRLSFLVLLAFLSMYAVNARLAFYLTLILPGIFLAMRFLLRLIDRRYREAQEVFDRISTLAQEAFSGIRVVKGYALERRMVAWFQDLNRLYVEKSLALARVEGPLHALLGFLMGFAFLTVLWAGGAMVVRGELSCGELVQFNAYLAQLTWPILGLGWVMALYQRGLTSLRRLFELLDEKPAIRDEDPLPLALEDLSGEVRFEGVGLKRDGRWLLRGLTLTIPEGMTLGITGRTGSGKSLLAALVPRLLDPSEGRVYVGGHEARRIPLAVLRKAVGVAPQEPFLFSETILENIAFGLDEVDRERVEWAARLAGIHEEILAFPKGYETVLGERGITLSGGQRQRVALARALAKRPKILILDDALSAVDAETEARILQGLKTVLGKQTTLLISHRTAALRHADWIIVLDGGRIVEEGTHESLLQAGGLYAEMDRLQKEVEA
binds	binds	TmrB V275C (chain of the double cysteine mutant of cysteine-less WT TmrAB) (natural protein, Thermus thermophilus, TmrB, Thermus thermophilus, the chain of TmrAB with the non-canonical Walker B motif; Co-expressed with the TmrA chain; also called V275C^TmrB) MTGRSAAPLLRRLWPYVGRYRWRYLWAVLAGLVSIFFFVLTPYFLRLAVDAVQAGRGFGVYALAIVASAALSGLLSYAMRRLAVVASRQVEYDLRRDLLHHLLTLDRDFYHKHRVGDLMNRLNTDLSAVREMVGPGILMGSRLSFLVLLAFLSMYAVNARLAFYLTLILPGIFLAMRFLLRLIDRRYREAQEVFDRISTLAQEAFSGIRVVKGYALERRMVAWFQDLNRLYVEKSLALARVEGPLHALLGFLMGFAFLTVLWAGGAMVVRGELSCGELVQFNAYLAQLTWPILGLGWVMALYQRGLTSLRRLFELLDEKPAIRDEDPLPLALEDLSGEVRFEGVGLKRDGRWLLRGLTLTIPEGMTLGITGRTGSGKSLLAALVPRLLDPSEGRVYVGGHEARRIPLAVLRKAVGVAPQEPFLFSETILENIAFGLDEVDRERVEWAARLAGIHEEILAFPKGYETVLGERGITLSGGQRQRVALARALAKRPKILILDDALSAVDAETEARILQGLKTVLGKQTTLLISHRTAALRHADWIIVLDGGRIVEEGTHESLLQAGGLYAEMDRLQKEVEA
